The supplement of paper PMC12764529
± gives the half width of the 95% confidence interval.

Assay: folding stability dG unfold from chymotrypsin proteolysis; higher = more stable
Method: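 Folding stability of de novo designed mini-proteins (<80 aa, no Cys; designed by TrROS, TrMRF, ProteinMPNN and the joint model) was measured by cDNA display proteolysis with trypsin and chymotrypsin. Each protease was used at 11 concentrations in a threefold dilution series plus a no-protease condition. K50 was inferred by Bayesian fitting of sequencing counts, and dG unfold was derived against a sequence-predicted unfolded-state K50 (Tsuboyama et al. method). Sequences shown include variable-length N-terminal GS-type padding (SAGGSAGG...) inside a display construct carrying a PA tag. Rows were kept only if the AF2 dimer inter-PAE was >15, to exclude likely homo-oligomers.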

Row | Sequence | folding stability dG unfold
1 | SAGGTIKGLPVEEIKDEIRDLFPDHPMKVDIEPIDEDEGYVRVEIEPPRPNGKTQRQEHTIPIRPDDSAGGS [r16_564_TrROS] | -0.579 ± 0.14 kcal/mol
2 | SAGGSAGGSAGGMIIVPVVTEETVDVTFRKTPEGVWEPVGPQTITTTTTLTIDPTKGRLSAGGSAGGSAGGS [r10_93_JUSTAS] | 0.135 ± 0.43 kcal/mol
3 | SAGGSAGGSPAEITREEAVELAYETLPATEPAVFVFADPRLLVVYPDGADPSRNRVVEVPLLDSAGGSAGGS [r12_648_TrMRF] | -0.339 ± 0.17 kcal/mol
4 | SAGGSAGGSAGGSPVLKTEEKALPNGTVVTTEFLPGGRRREVITPPDGTVKVVEREIERSAGGSAGGSAGGS [r10_1184_JUSTAS] | 0.356 ± 0.019 kcal/mol
5 | SAGGSGMWTPKQVKLLAEPGKSKTITIPGPVSEEEINALLNAGEPVIITLPDGTVLKAEKNTITLESAGGSA [r2_33_JUSTAS] | 0.138 ± 0.084 kcal/mol
6 | SAGGSAGGSAGAWTDPDGNPYEVKEATVASLGPENPIVLVRFSENGELRLVPLEQALADLSAGGSAGGSAGG [r17_517_TrMRF] | 0.558 ± 0.16 kcal/mol
7 | SAGGKLKEAFEKNGYKAYVHPDSPVVTVEFYKPVKLENGEWKPKKLGTKTIEVDGVDLEKAYEILLKESAGG [r13_924_TrMRF] | 0.935 ± 0.29 kcal/mol
8 | SAGGSAGGGMTGATPTPRTVPLPGDRTATVYERPETGELLVELPGRRLRVSPAALAAGEVALEASAGGSAGG [r6_940_JUSTAS] | 0.113 ± 0.22 kcal/mol
9 | SAGGSAGGSGPALANIPPDAKVTVTPLPDDSYLVDIYYPNGPVEYLDVPVGDKWVKFEVEPEKSAGGSAGGS [r20_50_TrMRF] | -0.749 ± 0.24 kcal/mol
10 | SAGGSAGGSMTVDTTYDPSTDRVTLTVTIPAPDGSELVRTVQSTGDPEAAAAAAAAAVAAAAASAGGSAGGS [r20_33_JUSTAS] | -0.252 ± 0.14 kcal/mol
11 | SAGGSAGGSAGGSPILIPRPDDYVLVVRIEEPRPLPDGDLAPPRIDVRLMPREEVERLLSAGGSAGGSAGGS [r4_238_TrMRF] | 0.992 ± 0.08 kcal/mol
12 | SAGGSAGGSAGGPFFMPEQKGTIPADELQKKGGNLTSVEIKVRPWMMELEIEIVYPPGDKSAGGSAGGSAGG [r7_116_TrROS] | 1.14 ± 0.36 kcal/mol
13 | SAGGSAGGSKWKISVHPPNGNSWKIDPGDTIKELVDQMSKENGWPYHIHVSKEEAEKLGLKPVSAGGSAGGS [r12_379_TrROS] | 0.356 ± 0.13 kcal/mol
14 | SAGSEVTLEITLTREVPSGKPVTLTETKTVPLAPSVPVEEVIKALKSPEWTAKVTLYTDGTPVTELTLDSAG [r5_278_JUSTAS] | 0.604 ± 0.064 kcal/mol
15 | SAGGSAGGSAGGMYIPGDLVEWVSPVGDKWRVGLIGKPQTFDWKDIPAPSNENIVFVPGSAGGSAGGSAGGS [r10_665_TrMRF] | -0.392 ± 0.29 kcal/mol
16 | SAGGSAGGSAAPEALPPRLVVPRPVLIVDKAPLEEVEVEELRKAAEEFARAVPDAVVLVDEESAGGSAGGSA [r18_499_TrMRF] | 0.788 ± 0.12 kcal/mol
17 | SAGGSAKPGEKLKIRMWNPDGETHEFDVKIPPGVRIRMPDNGQEQTFPPGDEIPFPPNMPIQVEKVSAGGSA [r15_152_TrROS] | 0.309 ± 0.086 kcal/mol
18 | SAGGSAGGSAGKKFKITEIHPGDNHHHITVKWKRDGKKRERTVMVPSGPEMAKKADIIIISAGGSAGGSAGG [r11_921_TrROS] | -0.547 ± 0.48 kcal/mol
19 | SAGTVTSSTTPLPDGSLLSTTTTTSPVSGTSVTTSTTTTTPVTPTTPPPPPRPVYPRYYDGVTEPALSLSAG [r5_169_JUSTAS] | -0.12 ± 0.068 kcal/mol
20 | SAGGSAGGSMTIVNPGTPETLAATVKETIKAGKKVKVIYVSPDNPEPVAEAEVEGTAEELEKESAGGSAGGS [r12_241_TrMRF] | 0.193 ± 0.11 kcal/mol
21 | SAGLFDYLHKHNGLVRAALRRNGPPVVIPRLFRIEPDGDTYKLSVPDPDGVPQDWEVLDVEVFKPEDAISAG [r14_427_TrMRF] | 0.275 ± 0.19 kcal/mol
22 | SAGGSAGGSARIRFPNGYEIEVPRKRNPDGNLEITIESRNPDNPEHREMAKKIARDIADELSAGGSAGGSAG [r3_163_TrROS] | -0.0805 ± 0.06 kcal/mol
23 | SAGGSAGGSAGGEARDNGVPTIEIPIPPEFKKGMPAEQMVDQLAKQLPPGVKDIHIEPPPSAGGSAGGSAGG [r7_487_TrROS] | 0.744 ± 0.035 kcal/mol
24 | SAGGSAGGSKKIVLVLKVKKEKAKEKVEKAKKELEKALPKDYKIKSIEVKYDPETDKVIIVADSAGGSAGGS [r12_308_TrMRF] | 0.376 ± 0.49 kcal/mol

Row | Sequence | folding stability dG unfold
25 | PEISELTSEESEDGTTFTETKVTLKDPNSNKKINATRKVETEVVGDSTTVTSTLTLPKDKKTINESYTISPS [r1_374_JUSTAS] | -0.591 ± 0.61 kcal/mol
26 | SAGGSAGGSASYSVTISPEERIEPVVDYKTGERRLVERRRVVVTADPKLSPALKAAILAALSSAGGSAGGSA [r18_438_JUSTAS] | 0.144 ± 0.2 kcal/mol
27 | SAGGMKVEDFVLELPTPEGKKILVEAVKVTTDPEAGLISVELKTPDKKEKLTLSPDEYVRGPSPEEFLKSAG [r5_15_JUSTAS] | -0.376 ± 0.19 kcal/mol
28 | SAGGSAGGSAGMKVKSIKKLSKDPKNGKETFEITIPENGEKVTIETEPGKFEEVKKKLLKSAGGSAGGSAGG [r17_111_JUSTAS] | 0.359 ± 0.089 kcal/mol
29 | SAGSVPQLIEDKLQEGSPNSSVEVKPVDTLGGTTVLEVKIERIDTSSGNGKLTSEDKIIEVPAGEELGSAGG [r19_8_JUSTAS] | 0.467 ± 0.049 kcal/mol
30 | SAGMSTTTTAEIKAAVEAAAGEGLNVAPPTVTATDGTPISDDTVIEPGAPVPVTVDVPIDPVPPPELRSAGG [r19_278_JUSTAS] | 0.336 ± 0.09 kcal/mol
31 | SAGGSAGGSAGGSKSIYISPDDPNNIRTPDDGEPFKGMPIEEAKKEGIEPRGPNAFRIPSAGGSAGGSAGGS [r4_306_TrROS] | -0.152 ± 0.36 kcal/mol
32 | SAGGSAGGSAGGPIEEILASLPPNATVKVSRVVKLTTPDGSLSSIEVEEVITVKKPEKALSAGGSAGGSAGG [r11_347_JUSTAS] | 0.655 ± 0.02 kcal/mol
33 | SAGGSAGGSAIPPDAPVEVPVRVRVGGEEFDVTATLTARPDGSVGVDVDVDVPADEAEIEPASAGGSAGGSA [r18_428_TrMRF] | 0.118 ± 0.32 kcal/mol
34 | SAGGSAGGSAGGNPVYRTRAEILETVPVGEDETVWLPGTAAPVSPSTTVLLARVYSVPADSAGGSAGGSAGG [r11_793_TrMRF] | -0.355 ± 0.27 kcal/mol
35 | SAGGSAGGSMLRVEVTLENGEKIEVEIEVPPGEELTLDEILAELKEKYPDLKVTEIKIEFLEPSAGGSAGGS [r12_262_TrROS_Hall] | 2.63 ± 0.22 kcal/mol
36 | SAGGSASVSYDPTPGPTRRTTTLLETEEVGPNLKRVKTKVTLFPSDGVPTTSTVTELDLVPPPELPSAGGSA [r15_1035_JUSTAS] | 0.527 ± 0.057 kcal/mol
37 | SAGGSAGGSAGGSGMEEIEEKMKKGYTFTVTSSSPNKTYTIKPEEVSKFKDESISVKAESAGGSAGGSAGGS [r4_157_JUSTAS] | -1.4 ± 0.84 kcal/mol
38 | SAGGSAGGSAGGGATVTETRTEFVPPTGIVRVESVVTYPDGSTRRTSSVVVVERPGAQPSAGGSAGGSAGGS [r10_290_JUSTAS] | 0.872 ± 0.03 kcal/mol
39 | SAGGSAGGSPGVRVKPVGDHYVVEIPLPPSVPLGRAVFEVEGGYAETVAVDPERGIATVRVPLSAGGSAGGS [r12_675_TrMRF] | 0.091 ± 0.11 kcal/mol
40 | SAGGSAGGSPMPILSASADPGPDGTRTLTLRLGDKTVTFTVPASRPALIPAPADSVISLDPAGSAGGSAGGS [r12_373_TrMRF] | -0.467 ± 0.14 kcal/mol
41 | SAGGSAGGSAGAVTVTVDAAPDPLPDREYVVVTVERTLPSGEVLAESRVFDRAEEALEAASAGGSAGGSAGG [r11_792_TrMRF] | 0.432 ± 0.14 kcal/mol
42 | SAGGSAGGSAGDPNYVQVTIRMPMERRNPEDGKWERNPMEITIPFKSKDQADKIAEEIGISAGGSAGGSAGG [r11_984_TrROS] | -0.0109 ± 0.18 kcal/mol
43 | SAGMKPGETRHIPIRPGMPPEEFIEEIEAEGPVKIWFPGRKREIDSPDDIEDNFRNFPEPMPIEVKVPSAGG [r19_95_TrROS] | 0.695 ± 0.12 kcal/mol
44 | SDPLGTPVPLTYRVLLTFPGVSRPFLGPGGVVRSVSVNPTVLVPGPANSYPAVRELAEPLGLSVSVTPLASA [r9_1209_TrMRF] | -0.289 ± 0.21 kcal/mol
45 | SAGGSAMPRSSVSIVSVERAPDGTVTIPTKTTLTTPDGTVTTEESTVTLEVPPGRELSEEEIKKLLSAGGSA [r15_836_JUSTAS] | 0.983 ± 0.017 kcal/mol
46 | SAGGSAGGSAGSNVVYLGEEVITEVDPYSDKPYTVKVKVYLEPTPEGEKIIEEVLEKELLSAGGSAGGSAGG [r11_113_JUSTAS] | -0.719 ± 0.29 kcal/mol
47 | SAGGSAGGSAGGPVFDMSNFEEVKEAAEKAGIDVVEEDPEKNTIYVDPSKPELIKEAIQKSAGGSAGGSAGG [r7_285_JUSTAS] | 0.874 ± 0.14 kcal/mol
